Data from publication PMC10718530.

Assays:
[1] = target: MreB from Geobacillus stearothermophilus (MreB^Gs), wild type, 6-histidine-tagged (Geobacillus stearothermophilus ATCC 7953); test: negative-stain electron microscopy; standard conditions with the lipid monolayer but without ATP
[2] = target: MreB from Geobacillus stearothermophilus (MreB^Gs), wild type, 6-histidine-tagged (Geobacillus stearothermophilus ATCC 7953); test: negative-stain electron microscopy; standard conditions (2 mM ATP, 100 mM KCl, MreB 1.34 µM) without lipids, in solution; untreated or glow-discharged grids
[3] = target: MreB from Geobacillus stearothermophilus (MreB^Gs), wild type, 6-histidine-tagged (Geobacillus stearothermophilus ATCC 7953); test: negative-stain electron microscopy; MreB 1.34 µM (0.27-1.34 µM in the concentration series) under a monolayer of E. coli total lipid extract; 20 mM Tris pH 7, 100 mM KCl, 2 mM ATP, 5 mM Mg2+, 1-2 h at 25-37 °C; untreated carbon grids; 12 fields a grid scored for pairs of protofilaments; 2D averaging of 1554 particles

percent of EM fields with polymers [1]: 4 % of fields | percent of EM fields with polymers [2]: 8 % of fields | critical concentration of polymerization [3]: 0.45 µM | percent of EM fields with polymers [3]: 100 % of fields
Substance: MreB from Geobacillus stearothermophilus (MreB^Gs), wild type, 6-histidine-tagged (natural protein)
